Values belong to the molecule of their own block, whether it stands above or below them.
Tests used:
NCI-H929 = assay: MTT in vitro cytotoxicity assay of BCMA antibody conjugates, NCI-H929; assay type: cell-based; conditions: Homo sapiens, 6000 cells, 96 h incubation, conjugates prepared via homogeneous conjugation process
Description: (§1) The cell lines used in the cytotoxicity assays were (1). NCI-H929, JJN3, U266, and MM1S were obtained from ATCC, and 8226-2A1cell is Myeloma antigen express cells through culturing and clone-picking of ATCC's RPMI-8226. The cells were grown according to the provider manuals. To run the assay, the cells (180 μl, 6000 cells) were added to each well in a 96-well plate and incubated for 24 hours at 37° C. with 5% CO2. Next, the cells were treated with test compounds (20 μl) at various concentrations in appropriate cell culture medium (total volume, 0.2 mL). The control wells contain cells and the medium but lack the test compounds. […] MTT (5 mg/mL) was then added to the wells (20 μl) and the plates were incubated for 1.5 hr at 37° C. The medium was carefully removed and DMSO (180 μl) was added afterward. After it was shaken for 15 min, the absorbance was measured at 490 nm and 570 nm with a reference filter of 620 nm. The inhibition % was calculated according to the following equation: inhibition %=[1−(assay-blank)/(control-blank)]×100.

MM1S = assay: MTT in vitro cytotoxicity assay of BCMA antibody conjugates, MM1S; assay type: cell-based; conditions: Homo sapiens, MM1.S, 6000 cells, 96 h incubation, conjugates prepared via homogeneous conjugation process
Description: as §1

JJN-3 cell xenograft = assay: Antitumor activity in vivo, JJN-3 cell xenograft mouse model of multiple myeloma; conditions: FIG. 10; single dose 5 mg/Kg
JJN-3 = assay: MTT in vitro cytotoxicity assay of BCMA antibody conjugates, JJN-3; assay type: cell-based; conditions: Homo sapiens, 6000 cells, 96 h incubation, conjugates prepared via homogeneous conjugation process
Description: as §1

[1] = system: multiple myeloma (MM) patients; conditions: cited from earlier work
[2] = molecular target: T1, Human B cell maturation antigen (BCMA, CD269) (human, UniProt Q02223 1-54); assay: ELISA on recombinant TrxA-BCMA, OD450 against IgG concentration
T1 construct: Flow cytometry used whole BCMA on NCI-H929 and RPMI-8226-BCMA cells; also called hBCMA
T1 sequence: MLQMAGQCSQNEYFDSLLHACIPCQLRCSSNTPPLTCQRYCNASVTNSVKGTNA

[3] = molecular target: T1, Human B cell maturation antigen (BCMA, …); assay: ELISA, plate coated with 1 ug/ml soluble BCMA (recombinant TrxA-BCMA), OD450 against IgG concentration
[4] = molecular target: T1, Human B cell maturation antigen (BCMA, …); assay: flow cytometry on NCI-H929 cells with endogenous BCMA, PE anti-human IgG Fc secondary, MFI against concentration

Molecule: CC(=O)O[C@H]1C(=O)[C@@]2(C)[C@H]([C@H](OC(=O)c3ccccc3)[C@]3(O)C[C@H](OC(=O)[C@H](O)[C@@H](NC(=O)c4ccccc4)c4ccccc4)C(C)=C1C3(C)C)[C@]1(OC(C)=O)CO[C@@H]1C[C@@H]2O [Paclitaxel]
IC50 (NCI-H929): 2.89 nM
IC50 (MM1S): 3.28 nM
orders of the antitumor activity (JJN-3 cell xenograft): Paclitaxel<C-385
IC50 (JJN-3): 4.31 nM

Molecule: Belantamabmafodotin
overall response rate ([1]; for MM): 32%
patients reported ocular toxicities requiring dose adjustments, dose delays and treatment discontinuations ([1]; patients with this ADC): over 60%

EC50 (read off the curve) [2]: ~0.04 µg/mL
EC50 (read off the curve) [3]: ~0.06 µg/mL
B1: J6M0 (antibody, V domains shown)
VH: QVQLVQSGAEVKKPGSSVKVSCKASGGTFSNYWMHWVRQAPGQGLEWMGATYRGHSDTYYNQKFKGRVTITADKSTSTAYMELSSLRSEDTAVYYCARGAIYDGYDVLDNWGQGTLVTVSS
VL: DIQMTQSPSSLSASVGDRVTITCSASQDISNYLNWYQQKPGKAPKLLIYYTSNLHSGVPSRFSGSGSGTDFTLTISSLQPEDFATYYCQQYRKLPWTFGQGTKLEIK

EC50 (read off the curve) [2]: ~0.09 µg/mL
EC50 (read off the curve) [3]: ~0.01 µg/mL
B2: Hybridoma monoclonal antibody BCMA-A2-6H4-5D2 (antibody, V domains shown)
VH: EVQLQQSGPELVKPGASVKMSCKASGYTFTSFLIHWVKQKPGQGLEWIGFIIPYNDGTKYNEKFKGKATLTSDKSSSTAYMELSSLTSEDSAVYYCARYDGSFEGYFDVWGAGTTLTVSS
VL: DVLMTQTPLSLPVSLRDQASISCRSSQSLVHSDGNTYLHWYLQKPGQSPKLLIYKVSNRFSGVPDRFSGSGSGTDFTLKISRVEAEDLGVYFCSQSTHVPWTFGGGTKLEIK
notes: Murine hybridoma antibody from BalB/c mice; also called clone BCMA-A2-6H4-5D2; CCTCC C2022188

EC50 (read off the curve) [3]: ~0.02 µg/mL
EC50 (read off the curve) [4]: ~0.05 µg/mL
B3: Humanized antibody hu5D2 (antibody, human IgG1, kappa, V domains shown)
VH: QVQLVQSGAEVVKPGASVKMSCKASGYTFTSFLIHWVKQAPGQGLEWIGFIIPGNGGTKYNQKFQGKATLTSDTSSSTAYMELSSLRSEDSAVYYCARYDGSFEGYFDVWGQGTTLTVSS
VL: DVVMTQSPLSLPVSLRQPASISCRSSQSLVHSDGNTYLHWYLQKPGQSPRLLIYKVSNRDSGVPDRFSGSGSGTDFTLKISRVEAEDLGVYFCSQSTHWPWTFGQGTKLEIKR
modifications: N-linked glycan at Asn300
notes: also called Hu5D2 antibody; BCMA antibody

EC50 (read off the curve) [4]: ~0.06 µg/mL
B4: hu5D2-Tub (antibody, human IgG1, kappa, V domains shown)
VH: QVQLVQSGAEVVKPGASVKMSCKASGYTFTSFLIHWVKQAPGQGLEWIGFIIPGNGGTKYNQKFQGKATLTSDTSSSTAYMELSSLRSEDSAVYYCARYDGSFEGYFDVWGQGTTLTVSS
VL: DVVMTQSPLSLPVSLRQPASISCRSSQSLVHSDGNTYLHWYLQKPGQSPRLLIYKVSNRDSGVPDRFSGSGSGTDFTLKISRVEAEDLGVYFCSQSTHWPWTFGQGTKLEIKR
modifications: conjugated to a tubulysin analog payload; sites and drug/antibody ratio of the lot used in Fig. 3 are not given
notes: Antibody-drug conjugate of hu5D2; also called hu5D2 conjugated ADC; hu5D2-tub196

EC50 (read off the curve) [3]: ~0.05 µg/mL
B5: c5D2 (antibody, human IgG1, kappa, V domains shown)
VH: EVQLQQSGPELVKPGASVKMSCKASGYTFTSFLIHWVKQKPGQGLEWIGFIIPYNDGTKYNEKFKGKATLTSDKSSSTAYMELSSLTSEDSAVYYCARYDGSFEGYFDVWGAGTTLTVSS
VL: DVLMTQTPLSLPVSLRDQASISCRSSQSLVHSDGNTYLHWYLQKPGQSPKLLIYKVSNRFSGVPDRFSGSGSGTDFTLKISRVEAEDLGVYFCSQSTHVPWTFGGGTKLEIKT
notes: VH/VL of BCMA-A2-6H4-5D2 fused to human IgG1 and kappa constant domains; also called chimeric antibody c5D2

Reference: patent US20260158153A1, “BCMA MONOCLONAL ANTIBODY AND THE ANTIBODY-DRUG CONJUGATE” (priority 2021, published 2026)
